Test results from patent US20230382948A1, “DELIVERY OF ENDOTHELIAL CELL-LADEN MICROGEL ELICITS ANGIOGENESIS IN SELF-ASSEMBLING ULTRASHORT PEPTIDE HYDROGELS” (KING ABDULLAH UNIVERSITY OF SCIENCE AND TECHNOLOGY, priority 2020, published 2023).
Where no end group is shown, it is not given here. [ ]: non-standard residue; d: D form. Cha = N[C@@H](CC1CCCCC1)C(=O)O

Tests used:
[1] = Rheological characterization of SUP bulk hydrogels; type: physicochemical
Experimental: The mechanical stiffness of the peptide hydrogels was analyzed using a TA Ares-G2 Rheometer equipped with parallel-plate geometries of 8 mm diameter at room temperature. The sample gap between the upper and the lower geometries was set at 1.8 mm. The hydrogels were prepared from 135 μL of peptide solution that was mixed with 15 μL of 10×PBS in an 8 mm i.d. poly(methyl methacrylate) (PMMA) casting ring and left for 1 day before measurement. The rings were kept inside Petri dishes at room temperature with water surrounding them and tightly sealed to avoid dehydration. To control the accuracy of the measurements, six replicates for each peptide hydrogel were prepared. The stiffness was analyzed through three successive tests, which were time sweep, frequency sweep, and amplitude sweep. Time sweep was first performed for 5 min with an angular frequency and a strain of 1 rad/s and 0.1%, respectively. A frequency sweep was subsequently performed on the sample for a range of angular frequency of 0.1-100 rad/s with the same strain of 0.1%. The tests were completed with the amplitude sweep by applying a gradual increase of strain […] at 1 rad/s angular frequency.

[2] = Peptide gelation study (vial inversion method); type: physicochemical; settings: 1 mg/ml and 10 mg/ml, compared to IIZK and IZZK, FIG. 57
Experimental: The preweighed (as per the required final concentration) peptide powder was dissolved in 0.9 mL of Milli-Q® water in a glass vial. The solution was vortexed for 5-10 s to obtain a clear and homogeneous solution. To this peptide solution, 0.1 mL of PBS buffer (10×, w/o Ca^2+ and Mg^2+) was added. To ensure a homogeneous distribution of buffer in the solution, the glass vial was further vortexed for 2-3 s. The glass vial was kept undisturbed on the bench, and hydrogel formation was observed using the vial inversion method, as shown in FIG. 9. The pH of the solutions of IVFK (SEQ ID NO. 1) and IVZK (SEQ ID NO. 2) was 5.57 and 5.48 at a 5 mg/mL concentration, respectively. After the addition of PBS, the pH changed to 7.7 and 7.6 for IVFK (SEQ ID NO. 1) and IVZK (SEQ ID NO. 2), respectively. The pH of the Milli-Q® water and phosphate buffer used was 6.7 and 7.4, respectively.

Row | Substance | Loss modulus (G″) ([1]; 1 mg/mL) [kPa] | Storage Modulus (G′, kPa) ([1]; 1 mg/mL) [kPa] | tan δ (G″/G′) ([1]; 1 mg/mL) | Loss modulus (G″) ([1]; 2 mg/mL) [kPa] | Storage Modulus (G′, kPa) ([1]; 2 mg/mL) [kPa] | tan δ (G″/G′) ([1]; 2 mg/mL) | Loss modulus (G″) ([1]; 5 mg/mL) [kPa] | Storage Modulus (G′, kPa) ([1]; 5 mg/mL) [kPa] | tan δ (G″/G′) ([1]; 5 mg/mL) | Loss modulus (G″) ([1]; 8 mg/mL) [kPa] | Storage Modulus (G′, kPa) ([1]; 8 mg/mL) [kPa] | tan δ (G″/G′) ([1]; 8 mg/mL) | Loss modulus (G″) ([1]; 10 mg/mL) [kPa] | Storage Modulus (G′, kPa) ([1]; 10 mg/mL) [kPa] | tan δ (G″/G′) ([1]; 10 mg/mL) | Loss modulus (G″) ([1]; 13 mg/mL) [kPa] | Storage Modulus (G′, kPa) ([1]; 13 mg/mL) [kPa] | tan δ (G″/G′) ([1]; 13 mg/mL) | Self-assembly rate (time to form a gel) [2]
1 | IIZK: self-assembling ultrashort tetrapeptide, Cha-containing, one-letter sequence IIZK (II[Cha]K) | 0.88 ± 0.04 | 6.52 ± 0.18 | 0.13 | 2.02 ± 0.09 | 16.82 ± 0.72 | 0.12 | 7.08 ± 0.59 | 64.74 ± 4.89 | 0.11 | 10.91 ± 0.44 | 89.40 ± 1.86 | 0.12 | 15.54 ± 0.68 | 134.04 ± 5.99 | 0.12 | 37.76 ± 2.38 | 271.34 ± 35.09 | 0.14 | 
2 | IIFK: self-assembling ultrashort tetrapeptide, one-letter sequence IIFK | 0.13 ± 0.04 | 1.25 ± 0.86 | 0.10 | 1.31 ± 0.12 | 14.45 ± 1.37 | 0.09 | 2.39 ± 0.11 | 27.26 ± 1.30 | 0.09 | 5.00 ± 0.31 | 49.74 ± 5.02 | 0.10 | 9.04 ± 0.56 | 94.18 ± 7.12 | 0.10 | 8.90 ± 0.36 | 108.21 ± 5.02 | 0.08 | slower than the Cha-containing peptides
